Experimental findings from the Human Domainome abundance scans (Beltran et al. 2025) are described below.

± gives the uncertainty stated by the source.

To fix the notation:
B1: Serine/threonine-protein kinase A-Raf, residues 21 to 89; numbered along this chain, P10398 (parent)
chain: VKVYLPNKQRTVVTVRDGMSVYDSLDKALKVRGLNQDCCVVYRLIKGRKTVTAWDTAIAPLDGEELIVE

This data set covers variants of B1. Kind of data set: abundance fitness (aPCA) (normalised: wild type 0, dead -1); higher = more abundant; growth selection in yeast, the domain comes from the species named. The settings on record: Homo sapiens.
As for VKVYLPNKQRTMVTVRDGMSVYDSLDKALKVRGLNQDCCVVYRLIKGRKTVTAWDTAIAPLDGEELIVE [V12M], the abundance fitness was -0.264 ± 0.047.
On to VKVYLPNKQRTDVTVRDGMSVYDSLDKALKVRGLNQDCCVVYRLIKGRKTVTAWDTAIAPLDGEELIVE [V12D], for which the abundance fitness was -0.341 ± 0.18.
VKVYLPNKQRTTVTVRDGMSVYDSLDKALKVRGLNQDCCVVYRLIKGRKTVTAWDTAIAPLDGEELIVE [V12T]: the abundance fitness is -0.096 ± 0.065.
Turning to VKVRLPNKQRTVVTVRDGMSVYDSLDKALKVRGLNQDCCVVYRLIKGRKTVTAWDTAIAPLDGEELIVE [Y4R], the abundance fitness came to 0 ± 0.035.
For the variant VKVYLPNKQRTVVTVRDGMSVYDSLDKALKVRGLNQDCCVVYRLIKGRKTVTAPDTAIAPLDGEELIVE [W54P], the abundance fitness was -0.924 ± 0.14.
As to VKVYLPNKQRTVVTVRDGMSVYDSLDKALKVRGLNQDCCVVYRLIKGRKTVTASDTAIAPLDGEELIVE [W54S], the abundance fitness is -0.808 ± 0.14.
In the case of VKVYLPNKQRTVVTVRDGMSVYDSLDKALKVRGLNQICCVVYRLIKGRKTVTAWDTAIAPLDGEELIVE [D37I] it was -0.39 ± 0.26; in that of VKVYLPNKQRTVVTVRDGMSVYDSLDKACKVRGLNQDCCVVYRLIKGRKTVTAWDTAIAPLDGEELIVE [L29C], -0.995 ± 0.3.
As for VKVYLPNKQRTVVTVRDGMSVYDSLDKASKVRGLNQDCCVVYRLIKGRKTVTAWDTAIAPLDGEELIVE [L29S], the abundance fitness was -0.558 ± 0.072.
On to VKVYLPNKQRTVVTVRDGMSVYDSLDKAGKVRGLNQDCCVVYRLIKGRKTVTAWDTAIAPLDGEELIVE [L29G], for which the abundance fitness is -0.941 ± 0.11.
Take VKVYLPNKQRTVVTVRDGMSVYDSLDKCLKVRGLNQDCCVVYRLIKGRKTVTAWDTAIAPLDGEELIVE [A28C]: the abundance fitness is -0.223 ± 0.11.
The same measure for VKVYLPNKQRTVVTVRDGMSVYDSLDKVLKVRGLNQDCCVVYRLIKGRKTVTAWDTAIAPLDGEELIVE [A28V]: 0.1 ± 0.042; for VKVYLPNKQRTVVTVRDGMSVYDNLDKALKVRGLNQDCCVVYRLIKGRKTVTAWDTAIAPLDGEELIVE [S24N]: -0.469 ± 0.23; for VKVYLPNKQRTVVTVRDGMSVYDSLDKALKVRGLNQDCCVVYRLIKGRKTVTAWDTAIAPLNGEELIVE [D62N]: -0.051 ± 0.21.
The same measure for GKVYLPNKQRTVVTVRDGMSVYDSLDKALKVRGLNQDCCVVYRLIKGRKTVTAWDTAIAPLDGEELIVE [V1G]: -0.744 ± 0.17; for MKVYLPNKQRTVVTVRDGMSVYDSLDKALKVRGLNQDCCVVYRLIKGRKTVTAWDTAIAPLDGEELIVE [V1M]: -0.141 ± 0.1.
With VKVYLPNKQRTVDTVRDGMSVYDSLDKALKVRGLNQDCCVVYRLIKGRKTVTAWDTAIAPLDGEELIVE [V13D], the abundance fitness was -0.714 ± 0.23.
On to VKVYLPNKQRTVQTVRDGMSVYDSLDKALKVRGLNQDCCVVYRLIKGRKTVTAWDTAIAPLDGEELIVE [V13Q], for which the abundance fitness is -0.468 ± 0.11.
Take VKVYLPNKQRTVKTVRDGMSVYDSLDKALKVRGLNQDCCVVYRLIKGRKTVTAWDTAIAPLDGEELIVE [V13K]: the abundance fitness was -0.955 ± 0.37.
VKVYLPNKQREVVTVRDGMSVYDSLDKALKVRGLNQDCCVVYRLIKGRKTVTAWDTAIAPLDGEELIVE [T11E]: the abundance fitness is -0.108 ± 0.072.
In the case of VKVYLPNKQRTVVTVRDGMSVYDSLDKALKVRGLNQDCCVGYRLIKGRKTVTAWDTAIAPLDGEELIVE [V41G], the abundance fitness is -0.899 ± 0.12.
In the case of VKVYLPNKQRTVVTVRDGMSVYDSLDKALKVRGLNQDCCVAYRLIKGRKTVTAWDTAIAPLDGEELIVE [V41A] it was -0.274 ± 0.061.
For the variant VKVYLPNKQRTVVTVRDGMSVYDSLDKALKVTGLNQDCCVVYRLIKGRKTVTAWDTAIAPLDGEELIVE [R32T], the abundance fitness is -0.2 ± 0.08.
As to VKVYLPNKQRTVVTVRDGMSVYDSLDKALKVRGLNQDCMVVYRLIKGRKTVTAWDTAIAPLDGEELIVE [C39M], the abundance fitness is -0.432 ± 0.1.
In the case of VKVYLPNKQRTVVTVRDGMSVYDSLDKALKVRGLNQDCCVVYRLIKGRKTVTAWDTAIAPLDGCELIVE [E64C], the abundance fitness was -0.571 ± 0.21.
The same measure for VYVYLPNKQRTVVTVRDGMSVYDSLDKALKVRGLNQDCCVVYRLIKGRKTVTAWDTAIAPLDGEELIVE [K2Y]: -0.313 ± 0.19.
Turning to VKVYLPNKQRTVVTVRDGMSVYDSLDKALKVRGLNQDCCKVYRLIKGRKTVTAWDTAIAPLDGEELIVE [V40K], the abundance fitness is -0.117 ± 0.13.
In the case of VKVYLPNKQRTVVTVRDGMSVYDSLDKALKVRGLNQDCCVVYRSIKGRKTVTAWDTAIAPLDGEELIVE [L44S], the abundance fitness is -0.15 ± 0.06.
Regarding VKVYLPNKQRTVVTVRDGMSVYDSLDKALKVRGLNQDCCVVYRWIKGRKTVTAWDTAIAPLDGEELIVE [L44W], the abundance fitness was -0.059 ± 0.067.
As for VKVYLPNKQRTVVTVRDGMSVYDSLDKALKVRGLNQDCCVVYRLIKGRKTVTAWDTAICPLDGEELIVE [A59C], the abundance fitness is -0.188 ± 0.11.
VKVYLPNKQRTVVTVRDGMSVYDSLDKALKVRGLNQDCCVVYRLIKGRKTVTAWDTAIFPLDGEELIVE [A59F]: the abundance fitness was -0.015 ± 0.12.
For the variant VKVYLPNKQRTVVTVRDGMSVYQSLDKALKVRGLNQDCCVVYRLIKGRKTVTAWDTAIAPLDGEELIVE [D23Q], the abundance fitness was 0.118 ± 0.067.
The same measure for VKVYLPNKQRTVVTVRDGMSVYESLDKALKVRGLNQDCCVVYRLIKGRKTVTAWDTAIAPLDGEELIVE [D23E]: 0.085 ± 0.057; for VKVYLPNKQRTVVTVRDGMSVYLSLDKALKVRGLNQDCCVVYRLIKGRKTVTAWDTAIAPLDGEELIVE [D23L]: -0.493 ± 0.059.
On to VKVYLPNKQRTVVTVRDGMSVNDSLDKALKVRGLNQDCCVVYRLIKGRKTVTAWDTAIAPLDGEELIVE [Y22N], for which the abundance fitness was -0.346 ± 0.15.
As for VKVYLPNKQRTVVTVRDGMDVYDSLDKALKVRGLNQDCCVVYRLIKGRKTVTAWDTAIAPLDGEELIVE [S20D], the abundance fitness was -0.296 ± 0.14.
Take VKVYLPNKQRTVVTVRDGMSVYDSLDKALKNRGLNQDCCVVYRLIKGRKTVTAWDTAIAPLDGEELIVE [V31N]: the abundance fitness was -0.073 ± 0.17.
Regarding VKVYLPNKQRTVVTVRDGMSVYDSLDKALKPRGLNQDCCVVYRLIKGRKTVTAWDTAIAPLDGEELIVE [V31P], the abundance fitness was -0.41 ± 0.1.
Turning to VKVYLPNKQRTVVTVRDFMSVYDSLDKALKVRGLNQDCCVVYRLIKGRKTVTAWDTAIAPLDGEELIVE [G18F], the abundance fitness is -0.651 ± 0.073.
